B1: SecA N619 (SecA 1-619) (domain or fragment)
chain: MLIKLLTKVFGSRNDRTLRRMRKVVNIINAMEPEMEKLSDEELKGKTAEFRARLEKGEVLENLIPEAFAVVREASKRVFGMRHFDVQLLGGMVLNERCIAEMRTGEGKTLTATLPAYLNALTGKGVHVVTVNDYLAQRDAENNRPLFEFLGLTVGINLPGMPAPAKREAYAADITYGTNNEYGFDYLRDNMAFSPEERVQRKLHYALVDEVDSILIDEARTPLIISGPAEDSSEMYKRVNKIIPHLIRQEKEDSETFQGEGHFSVDEKSRQVNLTERGLVLIEELLVKEGIMDEGESLYSPANIMLMHHVTAALRAHALFTRDVDYIVKDGEVIIVDEHTGRTMQGRRWSDGLHQAVEAKEGVQIQNENQTLASITFQNYFRLYEKLAGMTGTADTEAFEFSSIYKLDTVVVPTNRPMIRKDLPDLVYMTEAEKIQAIIEDIKERTAKGQPVLVGTISIEKSELVSNELTKAGIKHNVLNAKFHANEAAIVAQAGYPAAVTIATNMAGRGTDIVLGGSWQAEVAALENPTAEQIEKIKADWQVRHDAVLEAGGLHIIGTERHESRRIDNQLRGRSGRQGDAGSSRFYLSMEDALMRIFASDRVSGMMRKLGMKPGEAIE
B2: SecA N629* (SecA 1-629, N629D) (domain or fragment)
chain: MLIKLLTKVFGSRNDRTLRRMRKVVNIINAMEPEMEKLSDEELKGKTAEFRARLEKGEVLENLIPEAFAVVREASKRVFGMRHFDVQLLGGMVLNERCIAEMRTGEGKTLTATLPAYLNALTGKGVHVVTVNDYLAQRDAENNRPLFEFLGLTVGINLPGMPAPAKREAYAADITYGTNNEYGFDYLRDNMAFSPEERVQRKLHYALVDEVDSILIDEARTPLIISGPAEDSSEMYKRVNKIIPHLIRQEKEDSETFQGEGHFSVDEKSRQVNLTERGLVLIEELLVKEGIMDEGESLYSPANIMLMHHVTAALRAHALFTRDVDYIVKDGEVIIVDEHTGRTMQGRRWSDGLHQAVEAKEGVQIQNENQTLASITFQNYFRLYEKLAGMTGTADTEAFEFSSIYKLDTVVVPTNRPMIRKDLPDLVYMTEAEKIQAIIEDIKERTAKGQPVLVGTISIEKSELVSNELTKAGIKHNVLNAKFHANEAAIVAQAGYPAAVTIATNMAGRGTDIVLGGSWQAEVAALENPTAEQIEKIKADWQVRHDAVLEAGGLHIIGTERHESRRIDNQLRGRSGRQGDAGSSRFYLSMEDALMRIFASDRVSGMMRKLGMKPGEAIEHPWVTKAIAD
B3: SecA N632 (SecA 1-632) (domain or fragment)
chain: MLIKLLTKVFGSRNDRTLRRMRKVVNIINAMEPEMEKLSDEELKGKTAEFRARLEKGEVLENLIPEAFAVVREASKRVFGMRHFDVQLLGGMVLNERCIAEMRTGEGKTLTATLPAYLNALTGKGVHVVTVNDYLAQRDAENNRPLFEFLGLTVGINLPGMPAPAKREAYAADITYGTNNEYGFDYLRDNMAFSPEERVQRKLHYALVDEVDSILIDEARTPLIISGPAEDSSEMYKRVNKIIPHLIRQEKEDSETFQGEGHFSVDEKSRQVNLTERGLVLIEELLVKEGIMDEGESLYSPANIMLMHHVTAALRAHALFTRDVDYIVKDGEVIIVDEHTGRTMQGRRWSDGLHQAVEAKEGVQIQNENQTLASITFQNYFRLYEKLAGMTGTADTEAFEFSSIYKLDTVVVPTNRPMIRKDLPDLVYMTEAEKIQAIIEDIKERTAKGQPVLVGTISIEKSELVSNELTKAGIKHNVLNAKFHANEAAIVAQAGYPAAVTIATNMAGRGTDIVLGGSWQAEVAALENPTAEQIEKIKADWQVRHDAVLEAGGLHIIGTERHESRRIDNQLRGRSGRQGDAGSSRFYLSMEDALMRIFASDRVSGMMRKLGMKPGEAIEHPWVTKAIANAQR
B4: SecA N828 (SecA 1-828) (domain or fragment)
chain: MLIKLLTKVFGSRNDRTLRRMRKVVNIINAMEPEMEKLSDEELKGKTAEFRARLEKGEVLENLIPEAFAVVREASKRVFGMRHFDVQLLGGMVLNERCIAEMRTGEGKTLTATLPAYLNALTGKGVHVVTVNDYLAQRDAENNRPLFEFLGLTVGINLPGMPAPAKREAYAADITYGTNNEYGFDYLRDNMAFSPEERVQRKLHYALVDEVDSILIDEARTPLIISGPAEDSSEMYKRVNKIIPHLIRQEKEDSETFQGEGHFSVDEKSRQVNLTERGLVLIEELLVKEGIMDEGESLYSPANIMLMHHVTAALRAHALFTRDVDYIVKDGEVIIVDEHTGRTMQGRRWSDGLHQAVEAKEGVQIQNENQTLASITFQNYFRLYEKLAGMTGTADTEAFEFSSIYKLDTVVVPTNRPMIRKDLPDLVYMTEAEKIQAIIEDIKERTAKGQPVLVGTISIEKSELVSNELTKAGIKHNVLNAKFHANEAAIVAQAGYPAAVTIATNMAGRGTDIVLGGSWQAEVAALENPTAEQIEKIKADWQVRHDAVLEAGGLHIIGTERHESRRIDNQLRGRSGRQGDAGSSRFYLSMEDALMRIFASDRVSGMMRKLGMKPGEAIEHPWVTKAIANAQRKVESRNFDIRKQLLEYDDVANDQRRAIYSQRNELLDVSDVSETINSIREDVFKATIDAYIPPQSLEEMWDIPGLQERLKNDFDLDLPIAEWLDKEPELHEETLRERILAQSIEVYQRKEEVVGAEMMRHFEKGVMLQTLDSLWKEHLAAMDYLRQGIHLRGYAQKDPKQEYKRESFSMFAAMLESLKYEVISTLSK
B5: SecA N649 (SecA 1-649) (domain or fragment)
chain: MLIKLLTKVFGSRNDRTLRRMRKVVNIINAMEPEMEKLSDEELKGKTAEFRARLEKGEVLENLIPEAFAVVREASKRVFGMRHFDVQLLGGMVLNERCIAEMRTGEGKTLTATLPAYLNALTGKGVHVVTVNDYLAQRDAENNRPLFEFLGLTVGINLPGMPAPAKREAYAADITYGTNNEYGFDYLRDNMAFSPEERVQRKLHYALVDEVDSILIDEARTPLIISGPAEDSSEMYKRVNKIIPHLIRQEKEDSETFQGEGHFSVDEKSRQVNLTERGLVLIEELLVKEGIMDEGESLYSPANIMLMHHVTAALRAHALFTRDVDYIVKDGEVIIVDEHTGRTMQGRRWSDGLHQAVEAKEGVQIQNENQTLASITFQNYFRLYEKLAGMTGTADTEAFEFSSIYKLDTVVVPTNRPMIRKDLPDLVYMTEAEKIQAIIEDIKERTAKGQPVLVGTISIEKSELVSNELTKAGIKHNVLNAKFHANEAAIVAQAGYPAAVTIATNMAGRGTDIVLGGSWQAEVAALENPTAEQIEKIKADWQVRHDAVLEAGGLHIIGTERHESRRIDNQLRGRSGRQGDAGSSRFYLSMEDALMRIFASDRVSGMMRKLGMKPGEAIEHPWVTKAIANAQRKVESRNFDIRKQLLEYD
B6: SecA N798* (SecA 1-798, D798R) (domain or fragment)
chain: MLIKLLTKVFGSRNDRTLRRMRKVVNIINAMEPEMEKLSDEELKGKTAEFRARLEKGEVLENLIPEAFAVVREASKRVFGMRHFDVQLLGGMVLNERCIAEMRTGEGKTLTATLPAYLNALTGKGVHVVTVNDYLAQRDAENNRPLFEFLGLTVGINLPGMPAPAKREAYAADITYGTNNEYGFDYLRDNMAFSPEERVQRKLHYALVDEVDSILIDEARTPLIISGPAEDSSEMYKRVNKIIPHLIRQEKEDSETFQGEGHFSVDEKSRQVNLTERGLVLIEELLVKEGIMDEGESLYSPANIMLMHHVTAALRAHALFTRDVDYIVKDGEVIIVDEHTGRTMQGRRWSDGLHQAVEAKEGVQIQNENQTLASITFQNYFRLYEKLAGMTGTADTEAFEFSSIYKLDTVVVPTNRPMIRKDLPDLVYMTEAEKIQAIIEDIKERTAKGQPVLVGTISIEKSELVSNELTKAGIKHNVLNAKFHANEAAIVAQAGYPAAVTIATNMAGRGTDIVLGGSWQAEVAALENPTAEQIEKIKADWQVRHDAVLEAGGLHIIGTERHESRRIDNQLRGRSGRQGDAGSSRFYLSMEDALMRIFASDRVSGMMRKLGMKPGEAIEHPWVTKAIANAQRKVESRNFDIRKQLLEYDDVANDQRRAIYSQRNELLDVSDVSETINSIREDVFKATIDAYIPPQSLEEMWDIPGLQERLKNDFDLDLPIAEWLDKEPELHEETLRERILAQSIEVYQRKEEVVGAEMMRHFEKGVMLQTLDSLWKEHLAAMDYLRQGIHLRGYAQKR
B7: SecA N643 (SecA 1-643) (domain or fragment)
chain: MLIKLLTKVFGSRNDRTLRRMRKVVNIINAMEPEMEKLSDEELKGKTAEFRARLEKGEVLENLIPEAFAVVREASKRVFGMRHFDVQLLGGMVLNERCIAEMRTGEGKTLTATLPAYLNALTGKGVHVVTVNDYLAQRDAENNRPLFEFLGLTVGINLPGMPAPAKREAYAADITYGTNNEYGFDYLRDNMAFSPEERVQRKLHYALVDEVDSILIDEARTPLIISGPAEDSSEMYKRVNKIIPHLIRQEKEDSETFQGEGHFSVDEKSRQVNLTERGLVLIEELLVKEGIMDEGESLYSPANIMLMHHVTAALRAHALFTRDVDYIVKDGEVIIVDEHTGRTMQGRRWSDGLHQAVEAKEGVQIQNENQTLASITFQNYFRLYEKLAGMTGTADTEAFEFSSIYKLDTVVVPTNRPMIRKDLPDLVYMTEAEKIQAIIEDIKERTAKGQPVLVGTISIEKSELVSNELTKAGIKHNVLNAKFHANEAAIVAQAGYPAAVTIATNMAGRGTDIVLGGSWQAEVAALENPTAEQIEKIKADWQVRHDAVLEAGGLHIIGTERHESRRIDNQLRGRSGRQGDAGSSRFYLSMEDALMRIFASDRVSGMMRKLGMKPGEAIEHPWVTKAIANAQRKVESRNFDIRK
B8: SecA N639* (SecA 1-639, F639D) (domain or fragment)
chain: MLIKLLTKVFGSRNDRTLRRMRKVVNIINAMEPEMEKLSDEELKGKTAEFRARLEKGEVLENLIPEAFAVVREASKRVFGMRHFDVQLLGGMVLNERCIAEMRTGEGKTLTATLPAYLNALTGKGVHVVTVNDYLAQRDAENNRPLFEFLGLTVGINLPGMPAPAKREAYAADITYGTNNEYGFDYLRDNMAFSPEERVQRKLHYALVDEVDSILIDEARTPLIISGPAEDSSEMYKRVNKIIPHLIRQEKEDSETFQGEGHFSVDEKSRQVNLTERGLVLIEELLVKEGIMDEGESLYSPANIMLMHHVTAALRAHALFTRDVDYIVKDGEVIIVDEHTGRTMQGRRWSDGLHQAVEAKEGVQIQNENQTLASITFQNYFRLYEKLAGMTGTADTEAFEFSSIYKLDTVVVPTNRPMIRKDLPDLVYMTEAEKIQAIIEDIKERTAKGQPVLVGTISIEKSELVSNELTKAGIKHNVLNAKFHANEAAIVAQAGYPAAVTIATNMAGRGTDIVLGGSWQAEVAALENPTAEQIEKIKADWQVRHDAVLEAGGLHIIGTERHESRRIDNQLRGRSGRQGDAGSSRFYLSMEDALMRIFASDRVSGMMRKLGMKPGEAIEHPWVTKAIANAQRKVESRND

target: SecYEG-SecDF•YajC (E. coli) (UniProt P0AGA2)

Compared with B1, B4 is higher in % pOmpA Translocation, +YEG: in vitro translocation of pOmpA into liposomes with SecYEG-SecDF•YajC (% pOmpA Translocation): 0 for the first, 7.6 for the second.

B5 and B6 are the same in % pOmpA Translocation, +YEG: in vitro translocation of pOmpA into liposomes with SecYEG-SecDF•YajC (% pOmpA Translocation): 0 for the first, 0 for the second.

Compared with B1, B2 is higher in Channel Activity, μA, +YEG: ion current in Xenopus oocytes injected with the fragment, liposomes, SecYEG-SecDF•YajC, pOmpA, ATP-Mg: 0 μA for the first, 0.4 μA for the second.

First: B3
Second: B5
The Channel Activity, μA, +YEG: ion current in Xenopus oocytes injected with the fragment, liposomes, SecYEG-SecDF•YajC, pOmpA, ATP-Mg of the first is lower: 0.4 μA for the first, 5.8 μA for the second.

Going from B7 to B8, the Channel Activity, μA, +YEG: ion current in Xenopus oocytes injected with the fragment, liposomes, SecYEG-SecDF•YajC, pOmpA, ATP-Mg falls from 3.2 μA to 1.1 μA.

— publication PMC5456053
